Reference: IntAct's records for PubMed 17006541

B1: DNA topoisomerase 2-binding protein 1 (Homo sapiens), Q92547 (parent)
chain: MSRNDKEPFFVKFLKSSDNSKCFFKALESIKEFQSEEYLQIITEEEALKIKENDRSLYICDPFSGVVFDHLKKLGCRIVGPQVVIFCMHHQRCVPRAEHPVYNMVMSDVTISCTSLEKEKREEVHKYVQMMGGRVYRDLNVSVTHLIAGEVGSKKYLVAANLKKPILLPSWIKTLWEKSQEKKITRYTDINMEDFKCPIFLGCIICVTGLCGLDRKEVQQLTVKHGGQYMGQLKMNECTHLIVQEPKGQKYECAKRWNVHCVTTQWFFDSIEKGFCQDESIYKTEPRPEAKTMPNSSTPTSQINTIDSRTLSDVSNISNINASCVSESICNSLNSKLEPTLENLENLDVSAFQAPEDLLDGCRIYLCGFSGRKLDKLRRLINSGGGVRFNQLNEDVTHVIVGDYDDELKQFWNKSAHRPHVVGAKWLLECFSKGYMLSEEPYIHANYQPVEIPVSHKPESKAALLKKKNSSFSKKDFAPSEKHEQADEDLLSQYENGSSTVVEAKTSEARPFNDSTHAEPLNDSTHISLQEENQSSVSHCVPDVSTITEEGLFSQKSFLVLGFSNENESNIANIIKENAGKIMSLLSRTVADYAVVPLLGCEVEATVGEVVTNTWLVTCIDYQTLFDPKSNPLFTPVPVMTGMTPLEDCVISFSQCAGAEKESLTFLANLLGASVQEYFVRKSNAKKGMFASTHLILKERGGSKYEAAKKWNLPAVTIAWLLETARTGKRADESHFLIENSTKEERSLETEITNGINLNSDTAEHPGTRLQTHRKTVVTPLDMNRFQSKAFRAVVSQHARQVAASPAVGQPLQKEPSLHLDTPSKFLSKDKLFKPSFDVKDALAALETPGRPSQQKRKPSTPLSEVIVKNLQLALANSSRNAVALSASPQLKEAQSEKEEAPKPLHKVVVCVSKKLSKKQSELNGIAASLGADYRWSFDETVTHFIYQGRPNDTNREYKSVKERGVHIVSEHWLLDCAQECKHLPESLYPHTYNPKMSLDISAVQDGRLCNSRLLSAVSSTKDDEPDPLILEENDVDNMATNNKESAPSNGSGKNDSKGVLTQTLEMRENFQKQLQEIMSATSIVKPQGQRTSLSRSGCNSASSTPDSTRSARSGRSRVLEALRQSRQTVPDVNTEPSQNEQIIWDDPTAREERARLASNLQWPSCPTQYSELQVDIQNLEDSPFQKPLHDSEIAKQAVCDPGNIRVTEAPKHPISEELETPIKDSHLIPTPQAPSIAFPLANPPVAPHPREKIITIEETHEELKKQYIFQLSSLNPQERIDYCHLIEKLGGLVIEKQCFDPTCTHIVVGHPLRNEKYLASVAAGKWVLHRSYLEACRTAGHFVQEEDYEWGSSSILDVLTGINVQQRRLALAAMRWRKKIQQRQESGIVEGAFSGWKVILHVDQSREAGFKRLLQSGGAKVLPGHSVPLFKEATHLFSDLNKLKPDDSGVNIAEAAAQNVYCLRTEYIADYLMQESPPHVENYCLPEAISFIQNNKELGTGLSQKRKAPTEKNKIKRPRVH

How the values were obtained:
e2f1_human E2F1, Q01094 = variants of: B1; conditions: with e2f1_human E2F1, Q01094
akt1_human AKT1, P31749 = variants of: B1; conditions: with akt1_human AKT1, P31749
[1] = variants of: B1; conditions: with pias2_human PIAS2, O75928
ve2_hpv16 E2, P03120 = variants of: B1; conditions: with ve2_hpv16 E2, P03120
ve2_hpv16 E2, P03120, sequence (P03120 whole entry): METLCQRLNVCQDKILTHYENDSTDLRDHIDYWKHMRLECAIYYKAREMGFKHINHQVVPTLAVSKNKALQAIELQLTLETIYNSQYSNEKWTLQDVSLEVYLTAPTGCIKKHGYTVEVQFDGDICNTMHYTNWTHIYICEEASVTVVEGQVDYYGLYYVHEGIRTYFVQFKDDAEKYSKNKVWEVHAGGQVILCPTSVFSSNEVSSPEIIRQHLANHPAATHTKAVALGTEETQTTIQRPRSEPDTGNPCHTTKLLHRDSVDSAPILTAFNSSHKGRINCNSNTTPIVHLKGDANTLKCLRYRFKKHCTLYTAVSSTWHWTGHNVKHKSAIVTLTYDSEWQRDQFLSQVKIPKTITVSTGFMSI

e2f1_human E2F1, Q01094, sequence (Q01094 whole entry): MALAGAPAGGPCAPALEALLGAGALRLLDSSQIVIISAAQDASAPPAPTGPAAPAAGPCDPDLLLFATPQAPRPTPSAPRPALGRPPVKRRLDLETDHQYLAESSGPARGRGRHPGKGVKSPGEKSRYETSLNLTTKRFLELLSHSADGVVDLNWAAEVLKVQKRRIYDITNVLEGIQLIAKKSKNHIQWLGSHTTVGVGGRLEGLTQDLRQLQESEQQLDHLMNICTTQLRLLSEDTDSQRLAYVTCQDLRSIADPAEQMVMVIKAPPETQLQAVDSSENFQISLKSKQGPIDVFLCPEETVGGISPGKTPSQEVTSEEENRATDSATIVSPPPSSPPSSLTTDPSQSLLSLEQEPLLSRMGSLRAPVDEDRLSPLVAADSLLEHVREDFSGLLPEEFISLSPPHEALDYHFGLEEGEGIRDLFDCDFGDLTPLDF
pias2_human PIAS2, O75928, sequence (O75928 whole entry): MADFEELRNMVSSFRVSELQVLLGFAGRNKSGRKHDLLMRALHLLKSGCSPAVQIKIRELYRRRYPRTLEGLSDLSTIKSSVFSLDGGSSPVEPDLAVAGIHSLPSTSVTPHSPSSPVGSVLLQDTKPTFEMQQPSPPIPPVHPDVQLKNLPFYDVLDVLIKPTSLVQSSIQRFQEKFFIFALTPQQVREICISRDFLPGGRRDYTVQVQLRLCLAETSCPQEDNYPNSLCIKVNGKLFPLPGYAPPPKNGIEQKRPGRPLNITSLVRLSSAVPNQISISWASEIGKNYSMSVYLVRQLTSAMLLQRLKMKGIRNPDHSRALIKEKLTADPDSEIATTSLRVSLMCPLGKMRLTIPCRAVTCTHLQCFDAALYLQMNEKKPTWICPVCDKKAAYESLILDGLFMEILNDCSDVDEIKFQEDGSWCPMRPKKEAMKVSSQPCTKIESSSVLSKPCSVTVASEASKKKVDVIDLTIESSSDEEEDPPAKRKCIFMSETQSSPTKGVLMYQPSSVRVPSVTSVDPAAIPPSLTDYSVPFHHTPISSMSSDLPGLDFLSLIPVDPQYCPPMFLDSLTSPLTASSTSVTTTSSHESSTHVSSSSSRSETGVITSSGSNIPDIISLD
akt1_human AKT1, P31749, sequence (P31749 whole entry): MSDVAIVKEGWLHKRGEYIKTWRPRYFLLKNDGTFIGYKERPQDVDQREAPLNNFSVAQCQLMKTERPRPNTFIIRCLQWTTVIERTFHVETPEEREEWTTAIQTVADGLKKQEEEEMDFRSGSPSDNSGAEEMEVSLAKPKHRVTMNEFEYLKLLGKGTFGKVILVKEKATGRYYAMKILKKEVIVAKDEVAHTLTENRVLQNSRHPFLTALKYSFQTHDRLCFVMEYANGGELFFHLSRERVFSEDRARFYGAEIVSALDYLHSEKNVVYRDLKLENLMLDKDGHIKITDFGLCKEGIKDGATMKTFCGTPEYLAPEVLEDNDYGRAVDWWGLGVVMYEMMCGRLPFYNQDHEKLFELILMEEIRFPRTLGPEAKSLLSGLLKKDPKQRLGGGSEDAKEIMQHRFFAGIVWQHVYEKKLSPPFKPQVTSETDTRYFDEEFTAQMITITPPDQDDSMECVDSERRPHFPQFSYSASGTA

S1159D
effect of a mutation on the interaction (e2f1_human E2F1, Q01094): decreasing interaction

S1159A
effect of a mutation on the interaction (akt1_human AKT1, P31749): disrupting interaction
effect of a mutation on the interaction [1]: decreasing interaction
effect of a mutation on the interaction (e2f1_human E2F1, Q01094): disrupting interaction
effect of a mutation on the interaction (ve2_hpv16 E2, P03120): decreasing interaction
